Reference: patent US20240026407A1, “MODIFICATION OF SAPONINS” (GLAXOSMITHKLINE BIOLOGICALS SA, priority 2020, published 2024)

Tests used:
Type in all cases: biochemical, Quillaja saponaria
[1] = Experiment 6-1: screening of rhamnosidases for derhamnosylation of saponins in treated bark extract (2%), desglucosyl-QS-17 2134 to QS-21 1988 (PAR %); conditions: TBE 2%, pH 7.5, 30 degC, 18 h; TIC peak area ratio percent, LCMS/MS; negative controls 2.719, 2.158
[2] = Experiment 6-1: specificity of rhamnosidases towards other rhamnose residues (C3 saccharide rhamnose, C28 saccharide rhamnose); conditions: TBE 2%, pH 7.5, 30 degC, 18 h; LCMS/MS; negative controls 0.18, 0.17
[3] = Experiment 6-1: screening of rhamnosidases for derhamnosylation of saponins in treated bark extract (2%), QS-17 2310 to QS-18 2164 (PAR %); conditions: TBE 2%, pH 7.5, 30 degC, 18 h; TIC peak area ratio percent, LCMS/MS; negative controls 3.061, 2.429
[4] = Experiment 6-1: screening of rhamnosidases for derhamnosylation of saponins in treated bark extract (2%), QS-17 2296 to QS-18 2150 (PAR %); conditions: TBE 2%, pH 7.5, 30 degC, 18 h; TIC peak area ratio percent of rhamnosylated starting saponin to derhamnosylated product, LCMS/MS; negative controls 4.876, 5.225

| Molecule | Peak75 (PAR %) [1] [%] | ratio PP/QS-21 [2] | Peak57 (PAR %) [3] [%] | QS-17 (PAR %) [4] [%] |
| --- | --- | --- | --- | --- |
| 1012 (protein, Bacteroides thetaiotaomicron) MKSRLKQQIFAISLLACTAISPANALQTHLLREQFQNPSDEAKPWTFWYWMFGAVSKEGITADLEAMKRAGLGGTYLMPIKGIKEGPQYNGKAQQLTPEWWEMVRFSMEEADRLGLKLGMHICDGFALAGGPWMTPKESMQKIVWSDTIVDGGKIKGLHLPQPEAYEGFYEDISLFALPVKEEAADVMPAQITCANIATGNHIDIKKTVNMDDAGVIRSSYPCYIQYEYEQPFTCRNIEIILSGNNYQAHRLKVMASDDGVNYRLVKQLVPARQGWQNTDENSTHAIPATTARYFRFYWTPEGSEPGSEDMDAAKWKPNLKIKELRLHREARLDQWEGKAGLVWRVASSTKKEEIGEQDCYALSQIINLTDPFKNSPSDNFKERTLTATLPKGKWKLLRMGHTATGHTNATAGGGKGLECDKFNPKAVRKQFDNWFAQAFVKTNPDVARRVLKYMHVDSWECGSQNWSDTFAAEFRKRRGYDLMPYLPLLAGIPMESAERSEKILRDVRTTIGELVVDVFYQVLADCAKEYDCQFSAECVAPTMVSDGLLHYQKVDLPMGEFWLNSPTHDKPNDMLDAISGAHIYGKNIIQAEGFTEVRGTWNEHPGILKALLDRNYALGINRLFFHVYVHNPWLDRKPGMTLDGIGLFFQRDQTWWNKGAKAFCEYITRCQSLLQYGHPVADIAVFTGEEMPRRSILPERLVPSLPGIFGAERVESERIRLANEGQPLRVRPVGVTHSANMSDPEKWVNPLRGYAYDSFNKDALLRLAKAENGRMTLPGGASYKVLVLPLPRPMNPDPAALSPEVKQKINELKEAGILIPSLPYKEDDFSSYGLERDLIVPENIAWTHRQGEQGDIYFIANQLEETRTFTASMRIDGRKPECWNPVTGEINADIPYEQKSHRTEITLTLAPNESVFIVYPAEEDDKETSEKERKEKKDSVKEASETGLEATEYTVTFTANGKTIQRQELFDWSKEEDEQIRYYSGTAVYKTTFRWKSKVKEDQQVYLNLGKVCDLATVRVNGIDCGTIWTAPYRADITAALKKGVNELEIEVTNTWANALKGADEGKAPFDGIWTNAKYRRAENTLLPAGLLGPLNFDVANKNK | 2.610 | 0.16 | 3.249 | 5.068 |
| 1004 (protein, Bifidobacterium moukalabense) METQVIKPIAVGDLQITRFTIEHFPGDALGIPTATPRMNWTYSRAVPDGSQILLKISRRVPGSPAKEECTYLPPEDNVLVPWQFTPLASREEVFATVQLVSAAHKPLSDPSATLHFEAGLMQEYEHVADFVGPSWAEPETDHRHLPLIRTEIAIKAKPKRARLYLSALGLVEAEINGVKIGNDALIPGWTNYEQRVQCWTYDVTGELNEGANAMGFWLGDGWYRGRLGFDGGYVNYYGDRLGVFAQLEVEYEDGGIEHVYSNAWDRQWKASLGPIVCSDLCEGERYDARLEQPGWSEPGFDDSSWKPVAEIFYDPAKIENPDTSPVRAQEINEPVSITRTGDTPDGRGIWLVDFGQNCTQRIHLHVKGLEAGQSVELHHVEVLEPNGEIATRTLRRGQQHDIYTSNGTDAWWEPRFAMHGFRYAQIEGVAGELTAADIECHVYHSVMDRAGELETSNPLLNRLHANALWSMRSNFVSVPQDCPQRDERMGWTGDICLFAPTAAYLYDVYGFLKSWLKDVRADQVKWGTVPFYVPFIPLGGWAHPQAISTWGDSAVEVPWVLYMESGDPQILADSYDLSRDWIDEVAGYLSPDGVWDRRPDYVLGQLGDWLDPTAPPDDPTQAMTEKELVATAFFARSCAQAEQIARILGNNEDAVRFGDLRRHVTSGFLARFTNLDGTMTSDTQCAYALAIAFGLLDGEPVRRVKAGNRLAKLVRESGGKVSTGFAGTPFVLPALTMTGHNEEAYGLLLSEECPSWLYQVKMGATTTWERWDSMRPDGSLNPGGMTSFNHYALGSVAEWMHAHIGGLEAIEAGWKRFRVAPVIGGGLDHASTSHVTPYGKASVAWKTSAEGVELDVTVPIGATAVVELPDHEPTELAGGTHHLVVAL | 2.553 | 0.16 | 2.942 | 5.076 |
| 1028 (protein, listed as Formosa agariphila) MKYNKLLFSLLLLAVFCFSCKEEQKLQTSLDFDKVLLNAKSNPIAIESESPLFSWIIKAEGFGKSQSAYHILVASSLDKLDETHADVWNSNKVESSKSTFVKYEGKELKAATRYYWKVKVWDKSNQESNWSEPQYFQMGLLDESNWGEAKWITLTNDTRTSEYRFREYKTGRMEQPIQVDGFAASYFRNKINLNKEVDNAQVYICGLGYYEFFLNGEKVGDHVLDPAPSNYDKQAYYVNYDITEQLNSGENALGIILGNGFYGQNISWKNDPESDRDLAYGPPTVRVLLKLKYKDGTESEFFSDETWKESTGPIVFNNIYGGDTYDARFELGDWTSTNYDDSSWGFAKETAPEIKNISAQQIPAIKKLQDYEPQNVFKGSDGEWIVDFGQNIAGWVKLNVSEKEGQLIEVITTEALLTNGRDIFPGSTGGGANGMAQIYQYICKGDGQESWEPKFSYHGFRYAKIKGVSTKPDADMIKAVLVATDIQETGSFECSDDLFNKMHNISKWTIVDNVHGIPEDCPHREKCGWLGDAHAFCEYALYNYDMYDFYKKYMEDIRTQMLPTKGHNNPELKFQVPTMIAPGKRTSSYAKIDWGVATMYLPWYNYLYYGDDAIVNEYYPEMKDLTNFYLNFKGENGIMQDGMGDWCPPRWDRRTNPEAMECDPIISANAYFYDVLGIMETFAKMNNDGAFQSEMKAEKEALKDAFNKAFLVEIPNTDFKWYQSQTATVQALQFGMVPEEEIENVVNGLEYDIVEVKGGHHSTGIHGNRYIYTVLSKYGKADLAYRILTTPDFPSQTYIMNSGFTTWPERQFEWETMEGPTNSLNHPMHSGFSAYFFESLGGIKSSTKEAGYKQFIVNPEFPSQITQTKVSVPTPYGDIKNDWSFEEGKLSMTLEIPFNTEANLVLNQAELESLIINGKTFQNLQKNTKSVTLQGSNVILGSGKYKILYNKR | 2.885 | 0.15 | 1.993 | 5.081 |
| 991 (protein, Spirosoma linguale) MKFARLNTLTVWLITSFITVSFTISEAISADLTPVNLRTEYKRNPVVDVDKPRLSWELTATGRGQIQTAYQILVASSAALLNAEKADLWQSAKVAGNATNQIEYSGKTLLSRTVCYWKVRSWDKNGQPGPWSAVATWEMGLLTKADWKADWIGNDLTALGKGKTYHLPPSPFFRKEIQLTAPVKKARLYVTSLGLYEYQINGKRIGNDYFTPGWTDYNKRVYYQTYDVTADVKPGKNALGAILADGWYAGYLGYALLVGNPVVKNFYGNVPLLKAQLEIEYTNGKTETIATDQSWKTSHGPILEADILNGETYNANLAFDNWSKTGFNDAGWKNSTIFPDKPDRQLEAYPGNPVRVFQELKAKTVTPKAGGHYLFDLGQNFAGMVRLRVKGNKGDTIRLRFGEVLFPNGDIMTENLRKARATDTYILKGDPQGETWTPKFTYHGFQYVDVAGFKSAPGLDAITGIVLTSATPETGSFETDNKLINKLYQNIVWTQRSNYVEVPTDCPQRDERLGWTGDAQAYVQSATFNNDISAFFTKWLVDLNDAQRPDNAYPIYAPAPNVRKTDTYSPGWSEAGIICPYTIYKTYGDTRVIQKFWPNMVAYLKFMEAKSQGTYVYKEGSFAEVSPKGGFGDWLSVGKKTPPDMLATLYFGYAASMMADMAKAIGKPDEATYYTTMFTKIKQAFRAHYTDETGRFKTNSAAYGNGEGYVDGEMGFEGHTQTAYANAIYMNMIAPDLTPKAGNWLVDLIKANDNKLSTGFLGVKPLLPSLSMTGHSNEAYKLLLSTEYPSWGFEVVNGANTIWERWNSYIKGKGFENNAGMNSFNHYAFGSVNEWLFGNAAGIKAAEAGYRTFIIRPELAPQGINFVNASYRSINGTIVSSWKKEGNRVRMKVVVPANTTATVFIPITKPDSVLESNKALTASQDIRVIGARDGYLQVTVGSGTYQFSAVN | 2.453 | 0.17 | 3.443 | 5.084 |
